Data on 69 sequences can be found in the domain aggregation screens of Martell et al. (2025).

The nature of this data set: soluble fraction after stress (log2 fold change); higher = more stays soluble; pooled small domains, quantitative proteomics. Particulars: stress: 50 degC. The procedure, abridged: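 Each library was heated to 50°C as a stress step. The libraries, made up of small protein domains, were pooled and analysed at high throughput by quantitative proteomics. The reported value is the base-two logarithm of the fold change in each protein's soluble amount after stress, taken as a measure of aggregation propensity. The higher the value, the more protein stays in solution.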

For the sequence “HMTSHYTVLGVKETDTIEMIRTHYRKLILQFHPDKNQHLTEEERKKLEVKVLQIREAYEKIKKEK”, the “soluble fraction (log2)” value is -0.214.
Turning to “HMSVLLDDLSPREREILQLVVEGHSSTKIAGMLGLASATVDTYRSRLMAKLHIDNLPDLVRFAIRHGLIS”, the “soluble fraction (log2)” value was -1.22.
Then “HMEEPEELYRVKILIYNLLVRNGPGILYTRLRRADYPGEYGIYEEKNGYGKISATLSEWISLNTEYVQRLD”, with -2; and “HMITNEDINIKKLLVVMKDTPLSANEIMDKLNIKSKETLRNMYLDPAIKKGLINLTIPDKPTSKNQKYYK”, with -0.0903; and “HMTSSKISFIDPVNGGKVSVSLENSTLEKLQNRFGVNSVVRNEAGDVELKDKAQEFVAGWFADIAYTRG”, with 0.0813.
“HMERYFVLVIYDIVDNKKRLKLSKYLLGYGIRVQKSAFEMMITKEKYNKLIKELPTYIEEGEDSIRLY”: the “soluble fraction (log2)” value was found to be 0.132.
Turning to “HMFTLDDLQATYDIFERAEQNSDAMLAFQKVITAEGLDFDLTSPQGIVDFFKGAAPTEIYDLYEAS”, the “soluble fraction (log2)” value is -0.403.
For “HMDEAEELYQAVQALKPKYREVILLHYYQGLRVGEIAAILRAPQSTVSIRLRRARQMLNRMLG”, the “soluble fraction (log2)” value was -0.548.
As to “HMQNMVYVATKDIPAGGVIDQDSVSKTAISTSIDTSLYITDDDLGKIAVVNISQGQSVFSNMVGT”, the “soluble fraction (log2)” value was found to be 0.0238.
For the sequence “HMIFDPTTLPEKQLLVYGIISSHPGLNAKQISEMLTLKKSSIETAIKGLRKKEIIEYEGTTRNGG”, the “soluble fraction (log2)” value was -0.182.
Then “HMPSPTPEQVLKAFTDAAMQKNTVEELKQAFAKAWKMLEGTPEQHKAQDVYNIRRDELEGAA”, with -0.173.
As for “HMTTQIPEEVQKRVNQFYEALDEEDYGEAKQILEELEKATAPDHPTLIQMRTRYEFDTMELR”, the “soluble fraction (log2)” value stood at 0.186.
For the sequence “HMKDMKISTQNILKELATNYPDQTAFRKNVIESTAKSMGYTGKDFYPMLTAETRVKIGTYDLSALLQTV”, the “soluble fraction (log2)” value was -0.178.
Then “HMEQIETIFLSAAPYARTHIIHLLETSELFRDKYLTIVETSNGLLIYTEDKNRLLGILNSLT”, with -1.9; and “HMRTTTGSEGMIGSIGKAKTDLAPDGKIFIHGELWDATSSSPVSAGQKIEVTQIEGLKLHVKPVL”, with 0.268; and “HMTTAGTAIVQTGNSGKLNLREQAYANAGILGRYSNGTAVTVLQKGAAWSYVEVKGQKGYMMSKFLKFTS”, with -0.0681.
To “HMQAGPEDIIRAKLKTAMPEAQIISIRPTPAGLYQVNAKGYESVFVTADGRYLFQGDLLEIQGDRIVNL” belongs -0.123; to “HMSELTKEIGKRIHDFRKSRGLNQEELARLIYKSKATLSKYEKGEIAIDLDTLKQLALALHVRMEQLLPPT”, -0.0472.
On to “HMDVNPETLSYYIERADISLDELRTSVKGIDLFLTGEKQPTFNQISNIAKKLNIPTGLLLINKPIEI”, for which the “soluble fraction (log2)” value is -0.375.
As for “HMIPKDKQAWIALTYIYGVGRTTSMEILKKAQVGEEIRMKDLTEEEVTRIRNIIDKEYEVEGDLRRN”, the “soluble fraction (log2)” value was -0.292.
As to “HMNADLDIQNVNGNTPLWEAVMRYRGDGFFIEQLLKNGANPDIKNNYGVSPKSLARTIANYDVRRFFN”, the “soluble fraction (log2)” value is -0.137.
With “HMHVLNEEYYNRIKAIQFTMNHDDGNSLNDIEKSDIILLGVSRTSKTPTSIYLANRGLRTSNIPLINEK”, the “soluble fraction (log2)” value was -0.326.
In the case of “HMDEPGAGYKWREDVLLRVMASHGIEESLRDDFVRHAVGFDNDDNMYLKKVEIENAAAAWVAN”, the “soluble fraction (log2)” value is -0.377.
As for “HMAQPIPSGADIRAAREAAGMTLRRFAEYIAGPDFSTWSRYETGKPIRVKNISPEVWQRVRKFIAQNKG”, the “soluble fraction (log2)” value is -0.0609.
Then “HMATETMGMIIRRLRREHGLTQEELAASIGVTAQAVSKWEKDLGMPDISQIVPLAGAFNVRTDVLFGLE”, with -0.98.
Then “HMSEYTRGELVSSLEAGEVAAVSIRPNRETPTGEAQIVLSDGQHRVLYVTDVREIEELVSSYGLNPQVEK”, with 0.233; and “HMTKASEELYFRLKEELGTGVIVEHKKYGEGVVTQLDDRLVHIMFQDDTLRMMDLKILANAGLLKVK”, with 0.189; and “HMKTILEKDQRLAKYISYLIKRKRLSPEQVIEHLKTDDHGYEKYPKSINTIYAAIDKGLIPSVTRQDM”, with -0.0163.
On to “HMSSRNLIIFYDSPQAENALLATAERYGAILLHHYRNLHGIAVAIPADKDMAQAVTYFSRQPGVRQV”, for which the “soluble fraction (log2)” value was -0.803.
“HMKIDLKQIEGVLDELAKVKGSLITILQKTQETYGYLPKEAIIYISERTGIAESEIMGVATFYTQFRL”: the “soluble fraction (log2)” value was -0.105.
To “HMVSKQVTVNGIQYYQYTVQKSEGFYAISTKFGVTQDDIILANPSTKEGLRVGQEILIPIKT” belongs -0.186; to “HMPLRPNQRQFIHLMVYQGLDRNEAYAQANNKVLTEENYESIRTAAAKTFYTPHVNNYYHALMEEIRDRE”, -0.299.
Then “HMDNPNVMAQVKSLLASKGLSEQEVKERLKAKGLNIDAMSDAEIAQNRSVIEQTIAELEAEKKKAG”, with -0.128; and “HMRDKTMLGNVIRTRRKKMNLTLEELSKQVGITSGGLSQIERGLVDPSLSVLRRISRALNLPMNVMFSE”, with -0.281; and “HMGSKKITIYVSGEVKNPGIVTLNSDQRLASAVEKLGGVTENADMNNINLAMKLEDEMHYIIPKKGEK”, with 0.28.
To “HMQEESISWKEFLELDIIGDKKKRLKVYDLFHLGYGNAKTLFKRLNMVGISREMIEKELENEGY” belongs -1.32; to “HMEDKKQVLYELITDKSYRPLRFKELAVLLMVPKALRGELKQTLDELIKEGKITVDSSSRYRAA”, 0.133.
With “HMDDTPLNNVIKKIAALPENITLADKSAVLSAWEAYQALSVNLKAQVSNSELLIKAYETILQLEGEDQIK”, the “soluble fraction (log2)” value worked out at 0.235.
Regarding “HMPQLVGDVDGDGRVSVTDGEWIRASYGALPWYAGWRAAADLDGSRKIDVVDLELLRTKMGN”, the “soluble fraction (log2)” value was -0.191.
On to “HMAAYRLIPLGNSNKDFETYQEAIQYMRDKLDESSKAFEEGKQNWVYSGRVYGVPWSDGRTTFTVDLVPKV”, for which the “soluble fraction (log2)” value came out at 0.164.
Regarding “HMGVGVTAPLAGNIFKIVKQPGDVVASGDVVLILEAMKMETEIRAAAGGTVKQVLVREGDAVDAGHTLMTL”, the “soluble fraction (log2)” value was -0.309.
With “HMDDAIAEKTGGAVSSVNQRQAILDHIREAYGIELESLRSTDIERYLDDPEIPEPVKDILRDRLRGAK”, the “soluble fraction (log2)” value came out at 0.181.
Turning to “HMGQERAVPDVKGQSFDMAQGNISRAGLKAVVTDSVYDSYARPGTVVEQSPIPLAKIKRGGTVYLTLVA”, the “soluble fraction (log2)” value is -0.105.
Then “HMKSDVVFDITDGTVKAMLKFNRSDVTILNNDGKNYYLFTANGEFTFKYQDGSGEYYEKTVYVDWLEDE”, with -1.24; and “HMPGKVSDAGATAKDNRLFLEAVFWRVRTGSPWRDLPPAFGHWNSQFRRFRRWAKAGVFESLFNA”, with 0.0893.
Consider “HMSDTFENILQRLIKATGRKNASEMANALGLSPQSVYSAKTKGKIPPAWIFAAAERFNASADWIYFGY”, for which the “soluble fraction (log2)” value is -1.01.
Turning to “HMRTSIWTAIAHSLRSDIGSGVYGPDDKLPTESALAARFGVNRHTVRHAIKALTDEGLVLPRRGAGVFVTS”, the “soluble fraction (log2)” value is -0.21.
On to “HMDDFITLVIHTPAHAQNLRNILESHGMEVRLEDFVSFKSPVAVAQRVKIRPKDLPLALKIIESGE”, for which the “soluble fraction (log2)” value was 0.227.
As for “HMGVGITAPLAGNIFKIVVQPGDVVASGDVVLVLEAMKMETEIRAASGGTVSQVLVREGDAVDAGHTLITL”, the “soluble fraction (log2)” value was -0.764.
With “HMGITRQQALQQINQSASPKKILNASLGKRGSEFVWDIGYLSKSGKLNYVTYSFRSGEQLNAIKN”, the “soluble fraction (log2)” value was -1.02.
To “HMNKEHINLDSSKFLSLLNKTKISMSNDETRHYLNGIYIHPTVSNKSSYLTGVATDSHRLSSSSIPVD” belongs 0.121; to “HMINFLSKREIEVLRLVADGLSNRDVGQYLFISESTVKRHLSTIYEKLAVKSRTQAIDHARRADL”, -3.91; to “HMFTDAEIKQFAAAAVEVTKIQQDSTISAADKQPKMLAVVQSSGLPPEKFNQIGQAAAADPALQQRIQA”, 0.156.
As to “HMGDIQFMEYRINHSSGWIGKNISDFAAVSKNLVILIKRGQDVVIPRGPTAIMEDDVLVLHA”, the “soluble fraction (log2)” value is -1.6.
Then “HMTISGSDLKAQREALNIPLERIAKETRIRLSILQDLEDEEYSELSSSAQTKGFLRLYADYLSSHKQRLG”, with -0.415.
For “HMGELDPKIIAQINTFLQGITKLIEHPGNKDAKKTALGALHKLTFDQNITANFGKQLGQLDQVIQSSEET”, the “soluble fraction (log2)” value is 0.112.
As for “HMSNIIGNTAYSAIPDKQYFRLKSETAEKVANYLTENNIPFSGRINGDKTTLTIGQKNVDDYKAAVATVTG”, the “soluble fraction (log2)” value came to 0.0593.
Then “HMGMMTLGQRIAQYRKAMGISQEELGGRLGVSRQAVSKWETDAAAPDMENLLALAREFGVSVAELTETP”, with -0.0446; and “HMSENDTILAKFVSVMGNKNLELVIFPDIAYLKGQVSNPEDKTKAETVAQSLLGGKPLVSLIEFE”, with 0.218.
In the case of “HMIPNEKEAARWDALTAEHTAKLNALEGDALDKVGSHEDVSIKRAGVGDAAFREKILSRTHPDDLERALST”, the “soluble fraction (log2)” value stood at 0.0829.
As for “HMVAPKTEEQQKMFLESIVTKRQAETLIEKYPNIVQDIIDGTDNVDLANLKGIGEHTYNLIKEKVLSNY”, the “soluble fraction (log2)” value was 0.279.
Consider “HMNRIKIYPTPGSKVLSIENINFSLIHDFKILDIFGREVKNFTVSSEKNTKMLVDTSKLSDGLYFIFFNTF”, for which the “soluble fraction (log2)” value was -0.58.
Take “HMDMQNIQKGLSAIEPGRTFSREEYYAAIQNGSEMLLKEDALAYSLRKSLSDGDIVRVSWNQYAIP”: the “soluble fraction (log2)” value is -0.116.
As for “HMPRIYSITINPEKIRTVIGPGGKVIKDITAKTGTKIEIDDSGKVDIFSPDEEHARMAVEIINTLTEE”, the “soluble fraction (log2)” value came to 0.14.
To “HMAPQAETLLRQVMALPSKDRAVLYLHYYEGFSTREVGDMLHISQSAVTTRLLRARKKLKEIL” belongs 0.0889; to “HMPVEHVWHIAENGQTSGPYSKARMGRMAQEGQLTRDTHVWTPGQDGWMRAGDVTELAQLFT”, 0.0486.
“HMATEPLQPRVEVLGSTLATTNGARIVGVYDMSGREVSATQLSKGVYIVKVTNGSVTATQKVFI”: the “soluble fraction (log2)” value turned out to be 0.112.
Then “HMKQPNSYGSVHKLPGKRRKPWRVRKTSGWLLDEQSGTVKQQYITIGYYATKQEALIALADYNENP”, with -1.62.
Then “HMLAQYPGQVFSKEQIYNQVWKEPYYGVEDNVMSLIRRIRKKIEPDPSRPIYILTVWGIGYKFNN”, with -0.197.
